Source: patent US20240270828A1 (UAB RESEARCH FOUNDATION, published 2024)
Like-named read-outs stand apart in the source and are kept apart here.

What was measured:
[1] = target: Spike of live SARS-CoV-2 WT virus (SARS-CoV-2, UniProt P0DTC2 14-1273); assay: cell-based or functional assay
[2] = target: T1, MERS-CoV S2 (Sino Biological, 40070-V08) (MERS-CoV, UniProt K9N5Q8 726-1296); assay: BLI, mAb on anti-human Fc biosensor, MERS Spike protein in solution
T1 sequence: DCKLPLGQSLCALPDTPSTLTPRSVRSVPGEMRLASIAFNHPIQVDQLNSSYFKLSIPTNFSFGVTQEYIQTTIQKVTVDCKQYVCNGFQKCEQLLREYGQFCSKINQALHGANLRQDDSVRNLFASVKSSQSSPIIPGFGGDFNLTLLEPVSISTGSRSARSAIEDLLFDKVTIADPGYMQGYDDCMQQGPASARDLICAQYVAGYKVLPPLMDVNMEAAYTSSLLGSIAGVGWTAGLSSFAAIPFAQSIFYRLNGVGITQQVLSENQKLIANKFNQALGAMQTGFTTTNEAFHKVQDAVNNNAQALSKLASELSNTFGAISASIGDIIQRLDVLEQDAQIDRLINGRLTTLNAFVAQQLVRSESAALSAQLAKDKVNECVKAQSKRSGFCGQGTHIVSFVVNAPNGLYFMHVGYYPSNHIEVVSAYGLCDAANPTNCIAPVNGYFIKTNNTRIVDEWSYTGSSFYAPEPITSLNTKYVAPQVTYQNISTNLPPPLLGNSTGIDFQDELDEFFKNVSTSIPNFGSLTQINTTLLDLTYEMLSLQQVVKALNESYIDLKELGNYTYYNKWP

[3] = target: T2, SARS-CoV-2 S2 (40590-V08B, Sino Biological) (SARS-CoV-2, UniProt P0DTC2 686-1213); assay: ELISA on coated protein, anti-human IgG-HRP; AUC of the OD
T2 construct: domain: S2

[4] = target: T3, SARS-CoV-2 S1+S2 (40589-V08B1, Sino Biological) (SARS-CoV-2, UniProt P0DTC2 16-1213); assay: as above
[5] = target: T4, SARS-CoV-2 S1 (40591-V08H3, Sino Biological) (SARS-CoV-2, UniProt P0DTC2 16-685); assay: as above
T4 construct: domain: S1

[6] = target: T5, OC43 S2 (40607-V08B1, Sino Biological) (HCoV-OC43, UniProt P36334 759-1297); assay: ELISA titration of 1249A8 on coated Spike proteins, mean Abs at 450 nm
T5 construct: domain: S2
T5 sequence: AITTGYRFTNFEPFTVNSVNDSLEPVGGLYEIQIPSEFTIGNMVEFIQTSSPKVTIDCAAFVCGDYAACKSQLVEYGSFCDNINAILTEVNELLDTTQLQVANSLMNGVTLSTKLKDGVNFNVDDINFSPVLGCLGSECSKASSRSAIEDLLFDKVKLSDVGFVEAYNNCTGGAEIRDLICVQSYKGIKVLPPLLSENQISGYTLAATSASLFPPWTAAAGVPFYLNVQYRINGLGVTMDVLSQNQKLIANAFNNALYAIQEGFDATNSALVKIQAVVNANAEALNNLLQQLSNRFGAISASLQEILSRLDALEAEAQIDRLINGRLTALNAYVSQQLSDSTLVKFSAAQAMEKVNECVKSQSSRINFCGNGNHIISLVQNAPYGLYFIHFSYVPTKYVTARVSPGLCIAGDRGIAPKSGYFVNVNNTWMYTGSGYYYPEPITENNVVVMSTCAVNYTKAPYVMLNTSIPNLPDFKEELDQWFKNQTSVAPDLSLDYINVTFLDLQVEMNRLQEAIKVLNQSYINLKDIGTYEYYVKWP

[7] = target: T2, SARS-CoV-2 S2 (40590-V08B, Sino …); assay: ELISA, hmAb at 10 and 1 ug/ml in duplicate; AUC
[8] = target: T3, SARS-CoV-2 S1+S2 (40589-V08B1, Sino …); assay: ELISA, hmAb at 10 and 1 ug/ml in duplicate; AUC
[9] = target: T4, SARS-CoV-2 S1 (40591-V08H3, Sino …); assay: ELISA, hmAb at 10 and 1 ug/ml in duplicate; AUC
SARS-CoV Spike protein [10] = target: T6, SARS-CoV Spike protein (SARS-CoV, UniProt P59594 14-1195)
SARS-CoV Spike protein [11] = target: T6, SARS-CoV Spike protein; assay: SPR/BLI, method not told apart
[12] = target: T1, MERS-CoV S2 (Sino Biological, 40070-V08); assay: SPR/BLI, method not told apart

B1: 1249A8 (antibody, V domains shown)
VH: QVQLVQSGAEVKKPGASMKVSCKASGFTFTDYYMHWVRQAPRQGLEWMGLINPSGSGTAYAQNFQGRVTLARDTSTSTLYMEMGSLTSDDTAVYYCARMDSSGSYDHWGQGTLVTVSS
VL: ETTLTQSPGTLSLSPGDRATLSCRASQTIRISYLAWYQQKPGQAPRLLVYGPSIRATGIPDRFSARGSGTDFTLTISRLEPEDFAVYYCQHYGSSPPRYTFGQGTKLEIK
- Neutralization IC50 (µg/ml), Live Virus WT [1]: 1.77 µg/mL
- Kd [2]: 0.56 nM
- Binding AUC [3]: 28.2
- Binding AUC [4]: 24.8
- Binding AUC [5]: 1.4
- binding result [6]: binds
- Binding AUC [7]: 28.2
- Binding AUC [8]: 24.8
- Binding AUC [9]: 1.4
- binding result [9]: no binding (tested: 10 ug/ml)
- Kd (SARS-CoV Spike protein [10]): 3.15 nM
- Kd (SARS-CoV Spike protein [11]): 3.2 nM
- Kd [12]: 0.58 nM
